Laboratory results published in US20250084155A1.

Tests used:
[1] = biological target: HSP70 (human HSP70; the antigen of the binning, humanization and variant binding assays) (human) (UniProt P0DMV8); experiment: Octet epitope binning, sandwich format; cell row N15F2-5 / column N15F2-5; the sheet does not say whether rows or columns are the first antibody
[2] = biological target: HSP70 (human HSP70; the antigen of the binning, humanization and variant binding assays) (human) (UniProt P0DMV8); experiment: Octet epitope binning, sandwich format; cell row N15F2-5 / column C92F3-5; the sheet does not say whether rows or columns are the first antibody
[3] = biological target: HSP70 (human HSP70; the antigen of the binning, humanization and variant binding assays) (human) (UniProt P0DMV8); experiment: Octet epitope binning, sandwich format; cell row N15F2-5 / column m77A; the sheet does not say whether rows or columns are the first antibody
[4] = biological target: HSP70 (human HSP70; the antigen of the binning, humanization and variant binding assays) (human) (UniProt P0DMV8); experiment: Octet epitope binning, sandwich format; cell row C92F3-5 / column N15F2-5; the sheet does not say whether rows or columns are the first antibody
[5] = biological target: HSP70 (human HSP70; the antigen of the binning, humanization and variant binding assays) (human) (UniProt P0DMV8); experiment: Octet epitope binning, sandwich format (first antibody on the sensor, then HSP70, then second antibody); cell row C92F3-5 / column C92F3-5; the sheet does not say whether rows or columns are the first antibody
[6] = biological target: HSP70 (human HSP70; the antigen of the binning, humanization and variant binding assays) (human) (UniProt P0DMV8); experiment: Octet epitope binning, sandwich format; cell row C92F3-5 / column m77A; the sheet does not say whether rows or columns are the first antibody

Sequence of HSP70 (human HSP70; the antigen of the binning, humanization and variant binding assays) (human) (P0DMV8 whole entry, change not shown): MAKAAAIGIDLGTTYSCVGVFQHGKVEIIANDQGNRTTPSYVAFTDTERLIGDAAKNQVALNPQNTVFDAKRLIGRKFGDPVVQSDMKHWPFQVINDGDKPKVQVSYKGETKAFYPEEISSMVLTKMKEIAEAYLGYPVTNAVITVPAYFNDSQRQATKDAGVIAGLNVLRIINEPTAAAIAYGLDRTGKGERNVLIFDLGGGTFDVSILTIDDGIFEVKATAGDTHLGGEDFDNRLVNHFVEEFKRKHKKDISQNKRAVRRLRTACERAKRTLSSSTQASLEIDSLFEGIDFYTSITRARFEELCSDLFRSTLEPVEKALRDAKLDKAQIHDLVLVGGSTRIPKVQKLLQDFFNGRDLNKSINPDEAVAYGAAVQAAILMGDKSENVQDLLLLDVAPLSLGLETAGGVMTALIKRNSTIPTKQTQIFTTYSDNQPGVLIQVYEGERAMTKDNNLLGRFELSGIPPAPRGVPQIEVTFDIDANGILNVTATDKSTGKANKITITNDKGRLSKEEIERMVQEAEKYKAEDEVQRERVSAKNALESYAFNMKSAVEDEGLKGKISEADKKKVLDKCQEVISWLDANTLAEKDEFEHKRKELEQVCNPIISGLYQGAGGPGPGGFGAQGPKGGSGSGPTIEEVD

maximal binding in the presence of the potentially competing antibody (given as a fraction; legend: percent) [1] | maximal binding in the presence of the potentially competing antibody (given as a fraction; legend: percent) [2] | maximal binding in the presence of the potentially competing antibody (given as a fraction; legend: percent) [3] | maximal binding in the presence of the potentially competing antibody (given as a fraction; legend: percent) [4] | maximal binding in the presence of the potentially competing antibody (given as a fraction; legend: percent) [5] | maximal binding in the presence of the potentially competing antibody (given as a fraction; legend: percent) [6] | Substance
0 | 0.492 | 0.761 |  |  |  | N15F2-5 (Enzo Life Sciences) anti-HSP70 antibody
 |  |  | 0.489 | 0 | 0.781 | C92F3-5 (Fisher Scientific) anti-HSP70 antibody
